Consider 5 sequences from the supplement of paper PMC5998384.

The subject of data set [1] is HeLa Kyoto. Briefly: solubility change mitosis vs G1/S (difference of NP-40 vs SDS log2 ratios) (log2 ratio difference); higher = more soluble in mitosis.
Data set [2] has as its system HeLa Kyoto. Briefly: melting temperature (median over replicates), in situ; higher = more thermally stable.
The subject of data set [3] is HeLa Kyoto. Nature of the data set: thermal stability score vs G1/S (z-score of summed log2 fold changes over temperatures); higher = more thermally stable than in G1/S.
In data set [4] the test system is HeLa Kyoto. Briefly: solubility in G1/S (NP-40 vs SDS abundance) (log2 ratio); higher = more soluble. Conditions: cell cycle stage: G1/S.
The mark [5] stands for this setting: cell cycle stage: early G1 (4.5 h after nocodazole release).
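For melting temperature (median over replicates), in situ in this document: HeLa Kyoto cells synchronized by double thymidine or nocodazole block, proteins quantified by TMT10plex mass spectrometry, three independent biological replicates.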
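For solubility change mitosis vs G1/S (difference of NP-40 vs SDS log2 ratios) in this document: synchronized HeLa Kyoto cells (double thymidine block for G1/S, nocodazole release for mitosis), protein amounts in NP-40 versus SDS lysates quantified by mass spectrometry, three biological replicates.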
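For solubility in G1/S (NP-40 vs SDS abundance) in this document: HeLa Kyoto cells arrested at G1/S by double thymidine block, proteins quantified by TMT10plex mass spectrometry in mild NP-40 versus SDS extracts, three biological replicates.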
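For thermal stability score vs G1/S (z-score of summed log2 fold changes over temperatures) in this document: synchronized HeLa Kyoto cells, proteins quantified by TMT10plex mass spectrometry, three biological replicates, mitosis taken 0.5 h after nocodazole release, G1/S directly after double thymidine block.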

For the sequence “MAEGGAADLDTQRSDIATLLKTSLRKGDTWYLVDSRWFKQWKKYVGFDSWDKYQMGDQNVYPGPIDNSGLLKDGDAQSLKEHLIDELDYILLPTEGWNKLVSWYTLMEGQEPIARKVVEQGMFVKHCKVEVYLTELKLCENGNMNNVVTRRFSKADTIDTIEKEIRKIFSIPDEKETRLWNKYMSNTFEPLNKPDSTIQDAGLYQGQVLVIEQKNEDGTWPRGPSTPKSPGASNFSTLPKISPSSLSNNYNNMNNRNVKNSNYCLPSYTAYKNYDYSEPGRNNEQPGLCGLSNLGNTCFMNSAIQCLSNTPPLTEYFLNDKYQEELNFDNPLGMRGEIAKSYAELIKQMWSGKFSYVTPRAFKTQVGRFAPQFSGYQQQDCQELLAFLLDGLHEDLNRIRKKPYIQLKDADGRPDKVVAEEAWENHLKRNDSIIVDIFHGLFKSTLVCPECAKISVTFDPFCYLTLPLPMKKERTLEVYLVRMDPLTKPMQYKVVVPKIGNILDLCTALSALSGIPADKMIVTDIYNHRFHRIFAMDENLSSIMERDDIYVFEININRTEDTEHVIIPVCLREKFRHSSYTHHTGSSLFGQPFLMAVPRNNTEDKLYNLLLLRMCRYVKISTETEETEGSLHCCKDQNINGNGPNGIHEEGSPSEMETDEPDDESSQDQELPSENENSQSEDSVGGDNDSENGLCTEDTCKGQLTGHKKRLFTFQFNNLGNTDINYIKDDTRHIRFDDRQLRLDERSFLALDWDPDLKKRYFDENAAEDFEKHESVEYKPPKKPFVKLKDCIELFTTKEKLGAEDPWYCPNCKEHQQATKKLDLWSLPPVLVVHLKRFSYSRYMRDKLDTLVDFPINDLDMSEFLINPNAGPCRYNLIAVSNHYGGMGGGHYTAFAKNKDDGKWYYFDDSSVSTASEDQIVSKAAYVLFYQRQDTFSGTGFFPLDRETKGASAATGIPLESDEDSNDNDNDIENENCMHTN [USP15]”, the “solubility change mitosis (log2)” value in the data set on HeLa Kyoto [1] was -0.118. Moreover, the melting temperature is 49.8 °C in the data set with HeLa Kyoto [2] (cell cycle stage: G1/S) and 49.9 °C in the data set on HeLa Kyoto [2] (cell cycle stage: mitosis). The figures for the thermal stability score with HeLa Kyoto [3] (setting [5]) and in the data set with HeLa Kyoto [3] (cell cycle stage: mitosis) were -0.274 and 0.549, respectively. In addition, the “solubility in G1/S (log2)” value in the data set on HeLa Kyoto [4] came out at 0.00479.

In the case of “MAEGNTLISVDYEIFGKVQGVFFRKHTQAEGKKLGLVGWVQNTDRGTVQGQLQGPISKVRHMQEWLETRGSPKSHIDKANFNNEKVILKLDYSDFQIVK [ACYP1]”, the “solubility change mitosis (log2)” value in the data set with HeLa Kyoto [1] was -0.0383. The figures for the melting temperature with HeLa Kyoto [2] (cell cycle stage: G1/S) and in the data set with HeLa Kyoto [2] (cell cycle stage: mitosis) were 52.3 °C and 52.7 °C, respectively. In addition, the results for the thermal stability score with HeLa Kyoto [3] (setting [5]) and with HeLa Kyoto [3] (cell cycle stage: mitosis) were 0.389 and -1.31, respectively. For the same sequence, the “solubility in G1/S (log2)” value in the data set on HeLa Kyoto [4] worked out at 0.223.

Consider “MAEGTAEAPLENGGGGDSGAGALERGVAPIKRQYLTTKEQFHQFLEAKGQEKTCRETEVGDPAGNELAEPEAKRIRLEDGQTADGQTEEAAEPGEQLQTQKRARGQNKGRPHVKPTNYDKNRLCPSLIQESAAKCFFGDRCRFLHDVGRYLETKPADLGPRCVLFETFGRCPYGVTCRFAGAHLRPEGQNLVQEELAARGTQPPSIRNGLDKALQQQLRKREVRFERAEQALRRFSQGPTPAAAVPEGTAAEGAPRQENCGAQQVPAGPGTSTPPSSPVRTCGPLTDEDVVRLRPCEKKRLDIRGKLYLAPLTTCGNLPFRRICKRFGADVTCGEMAVCTNLLQGQMSEWALLKRHQCEDIFGVQLEGAFPDTMTKCAELLSRTVEVDFVDINVGCPIDLVYKKGGGCALMNRSTKFQQIVRGMNQVLDVPLTVKIRTGVQERVNLAHRLLPELRDWGVALVTLHGRSREQRYTKLADWQYIEECVQAASPMPLFGNGDILSFEDANRAMQTGVTGIMIARGALLKPWLFTEIKEQRHWDISSSERLDILRDFTNYGLEHWGSDTQGVEKTRRFLLEWLSFLCRYVPVGLLERLPQRINERPPYYLGRDYLETLMASQKAADWIRISEMLLGPVPPSFAFLPKHKANAYK [DUS3L]”, for which the “solubility change mitosis (log2)” value in the data set on HeLa Kyoto [1] is -0.0331. In addition, the melting temperature in the data set with HeLa Kyoto [2] (cell cycle stage: G1/S) came out at 49 °C; in the data set with HeLa Kyoto [2] (cell cycle stage: mitosis) it was 48.5 °C. Also, the figures for the thermal stability score in the data set on HeLa Kyoto [3] (setting [5]) and with HeLa Kyoto [3] (cell cycle stage: mitosis) were 1.52 and 2.59, respectively. In the data set on HeLa Kyoto [4], the “solubility in G1/S (log2)” value was -0.0832.

On to “MAEISDLDRQIEQLRRCELIKESEVKALCAKAREILVEESNVQRVDSPVTVCGDIHGQFYDLKELFRVGGDVPETNYLFMGDFVDRGFYSVETFLLLLALKVRYPDRITLIRGNHESRQITQVYGFYDECLRKYGSVTVWRYCTEIFDYLSLSAIIDGKIFCVHGGLSPSIQTLDQIRTIDRKQEVPHDGPMCDLLWSDPEDTTGWGVSPRGAGYLFGSDVVAQFNAANDIDMICRAHQLVMEGYKWHFNETVLTVWSAPNYCYRCGNVAAILELDEHLQKDFIIFEAAPQETRGIPSKKPVADYFL [PPP4C]”, for which, in the data set on HeLa Kyoto [1], the “solubility change mitosis (log2)” value is -0.0748. Further, the melting temperature with HeLa Kyoto [2] (cell cycle stage: G1/S) worked out at 54.8 °C; in the data set with HeLa Kyoto [2] (cell cycle stage: mitosis) it was 55.3 °C. Besides, the thermal stability score is 0.0354 with HeLa Kyoto [3] (setting [5]) and -1.42 in the data set with HeLa Kyoto [3] (cell cycle stage: mitosis). Moreover, the “solubility in G1/S (log2)” value with HeLa Kyoto [4] is -0.237.

Turning to “MAEKVLVTGGAGYIGSHTVLELLEAGYLPVVIDNFHNAFRGGGSLPESLRRVQELTGRSVEFEEMDILDQGALQRLFKKYSFMAVIHFAGLKAVGESVQKPLDYYRVNLTGTIQLLEIMKAHGVKNLVFSSSATVYGNPQYLPLDEAHPTGGCTNPYGKSKFFIEEMIRDLCQADKTWNAVLLRYFNPTGAHASGCIGEDPQGIPNNLMPYVSQVAIGRREALNVFGNDYDTEDGTGVRDYIHVVDLAKGHIAALRKLKEQCGCRIYNLGTGTGYSVLQMVQAMEKASGKKIPYKVVARREGDVAACYANPSLAQEELGWTAALGLDRMCEDLWRWQKQNPSGFGTQA [GALE]”, the “solubility change mitosis (log2)” value in the data set on HeLa Kyoto [1] is -0.146. For the same sequence, the values for the melting temperature in the data set on HeLa Kyoto [2] (cell cycle stage: G1/S) and with HeLa Kyoto [2] (cell cycle stage: mitosis) were 53.3 °C and 53.8 °C, respectively. Moreover, the thermal stability score with HeLa Kyoto [3] (setting [5]) was -3.9; with HeLa Kyoto [3] (cell cycle stage: mitosis), -0.458. Also, the “solubility in G1/S (log2)” value with HeLa Kyoto [4] was determined as 0.453.
